Assay results reported in the supplement of paper PMC7125110.
± gives the standard error. Fewer inactive variants are shown than the library holds.

B1: glmS ribozyme (parent)
chain: AUAAAAGCGCCAGAACUACAGAAAUGUAGUUGACGAGGAGGAGGUUUAUCGAAUUUUCGGCGGAUGCCUCCAAA

What was measured:
Conditions in all cases: with glucosamine-6-phosphate
[1] = variants of: B1; assay: self-cleavage kobs at 40 uM GlcN6P; higher = faster cleavage; RNA array
Outline: (§1)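 A hybridised Cy3 probe tracked barcoded ribozyme variants, transcribed in situ by E. coli RNA polymerase on sequenced MiSeq chips, at 37 °C. The variants received 40 μM to 10 mM glucosamine-6-phosphate in HEPES/KCl/Mg(OAc)2 buffer. kobs came from decay fits and kcat and KM from weighted Michaelis–Menten fits.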

[2] = variants of: B1; assay: self-cleavage kobs at 10000 uM GlcN6P; higher = faster cleavage; RNA array
Outline: as §1

[3] = variants of: B1; assay: self-cleavage kobs at 2500 uM GlcN6P; higher = faster cleavage; RNA array
Outline: as §1

[4] = variants of: B1; assay: self-cleavage kobs at 160 uM GlcN6P; higher = faster cleavage; RNA array
Outline: as §1

[5] = variants of: B1; assay: self-cleavage kobs at 640 uM GlcN6P; higher = faster cleavage; RNA array
Outline: as §1

| Variant | self-cleavage kobs at 40 uM GlcN6P [1] [s⁻¹] | self-cleavage kobs at 10000 uM GlcN6P [2] [s⁻¹] | self-cleavage kobs at 2500 uM GlcN6P [3] [s⁻¹] | self-cleavage kobs at 160 uM GlcN6P [4] [s⁻¹] | self-cleavage kobs at 640 uM GlcN6P [5] [s⁻¹] |
| --- | --- | --- | --- | --- | --- |
| C16A C34A G37U C50A C61A | 0.000276 ± 6.5e-05 | 0.000316 ± 6.4e-05 | – | – | – |
| G29U A36C A39C | < 1e-05 | < 1e-05 | – | – | – |
| A15U C34A A52U | < 1e-05 | < 1e-05 | – | – | – |
| C16U C50G G59A C68A | 4.62e-05 ± 2.3e-05 | 4.07e-05 ± 1.3e-05 | – | – | – |
| U30A G37C U65C | < 1e-05 | – | < 1e-05 | – | – |
| U30A G44U | < 1e-05 | – | – | – | – |
| U30A C70U | 0.000214 ± 3.6e-05 | 0.00358 ± 0.00063 | 0.00125 ± 0.00027 | 0.000386 ± 7.4e-05 | 0.000765 ± 0.00011 |
| A15G U49G | 4.65e-05 ± 2e-05 | 0.00148 ± 0.00024 | 0.000499 ± 0.0001 | 0.000118 ± 3.1e-05 | 0.000228 ± 4.3e-05 |
| C16A G59C | < 1e-05 | – | – | – | < 1e-05 |
| A15U A52U C70A | < 1e-05 | – | – | – | – |
| U30A U56A | 9.28e-05 ± 1.4e-05 | 0.00496 ± 0.00075 | – | – | – |
| C16G A39G G51U U55A | < 1e-05 | – | – | – | < 1e-05 |
| A15U U55G C61U | < 1e-05 | < 1e-05 | – | – | – |
| A23C C71U | 0.00121 ± 0.0003 | – | – | 0.000719 ± 0.0002 | 0.00652 ± 0.0018 |
| C16U G40U C68G | < 1e-05 | < 1e-05 | – | < 1e-05 | – |
| C16U A33U G38A G40A | < 1e-05 | < 1e-05 | – | – | – |
| G29U G60C C70A | < 1e-05 | – | – | – | – |
| A15G U30G | 0.000265 ± 4.2e-05 | 0.00934 ± 0.002 | – | 0.000476 ± 0.00016 | 0.00124 ± 0.00035 |
| G21U G43U G51U | < 1e-05 | < 1e-05 | – | – | < 1e-05 |
| G29A C71U | 0.000141 ± 2e-05 | 0.00436 ± 0.00077 | 0.00526 ± 0.0012 | 0.000261 ± 8.2e-05 | 0.000549 ± 7.9e-05 |
| C16A U55A G63U | < 1e-05 | – | – | – | – |
| C16U A53C | 0.000147 ± 2.2e-05 | 0.00687 ± 0.0013 | 0.00358 ± 0.00061 | 0.000234 ± 6.4e-05 | 0.00248 ± 0.00046 |
| G29U A52U U65A | < 1e-05 | – | – | – | – |
| C16A A52U G60A C71G | 5.98e-05 ± 2.3e-05 | – | – | – | – |
| G29U G35U C70U | < 1e-05 | – | < 1e-05 | – | – |
| C16G G63A | < 1e-05 | < 1e-05 | – | – | – |
